Measurements from PMC10980035 (bioRxiv, 2024).

Key:
[1] = molecular target: T1, Retriever complex (VPS35L, VPS26C, VPS29) (human, UniProt Q7Z3J2 1-963; O14972 1-297; Q9UBQ0-2 1-186); test: pull-down
[2] = molecular target: T1, Retriever complex (VPS35L, VPS26C, …); test: pull-down; remark: listed apart in the source

T1 sequence (Q7Z3J2 whole entry, chain 1 of 2): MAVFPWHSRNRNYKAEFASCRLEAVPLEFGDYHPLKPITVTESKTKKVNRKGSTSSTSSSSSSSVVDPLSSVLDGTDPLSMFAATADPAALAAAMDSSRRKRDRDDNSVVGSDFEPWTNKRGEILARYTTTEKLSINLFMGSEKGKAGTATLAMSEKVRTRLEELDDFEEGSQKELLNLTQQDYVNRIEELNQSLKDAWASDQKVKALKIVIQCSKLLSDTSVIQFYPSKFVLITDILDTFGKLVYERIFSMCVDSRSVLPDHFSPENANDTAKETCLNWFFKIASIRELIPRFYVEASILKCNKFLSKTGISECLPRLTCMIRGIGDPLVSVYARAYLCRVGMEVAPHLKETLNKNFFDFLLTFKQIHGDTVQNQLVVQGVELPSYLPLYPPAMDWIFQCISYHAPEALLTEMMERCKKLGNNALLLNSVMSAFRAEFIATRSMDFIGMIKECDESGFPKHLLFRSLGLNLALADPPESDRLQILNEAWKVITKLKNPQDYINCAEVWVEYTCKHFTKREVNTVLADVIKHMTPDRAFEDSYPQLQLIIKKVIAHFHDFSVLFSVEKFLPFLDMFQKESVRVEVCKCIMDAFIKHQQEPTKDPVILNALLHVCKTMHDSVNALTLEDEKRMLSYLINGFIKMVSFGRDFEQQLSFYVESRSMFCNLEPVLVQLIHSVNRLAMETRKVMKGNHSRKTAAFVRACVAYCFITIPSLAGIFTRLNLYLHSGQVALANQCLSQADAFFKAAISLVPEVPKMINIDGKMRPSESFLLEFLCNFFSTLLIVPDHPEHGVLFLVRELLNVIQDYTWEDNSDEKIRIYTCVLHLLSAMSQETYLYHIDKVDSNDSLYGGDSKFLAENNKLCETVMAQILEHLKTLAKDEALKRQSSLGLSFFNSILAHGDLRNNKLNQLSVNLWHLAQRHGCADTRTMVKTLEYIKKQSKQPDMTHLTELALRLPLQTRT
T1 sequence (O14972 whole entry, chain 2 of 2): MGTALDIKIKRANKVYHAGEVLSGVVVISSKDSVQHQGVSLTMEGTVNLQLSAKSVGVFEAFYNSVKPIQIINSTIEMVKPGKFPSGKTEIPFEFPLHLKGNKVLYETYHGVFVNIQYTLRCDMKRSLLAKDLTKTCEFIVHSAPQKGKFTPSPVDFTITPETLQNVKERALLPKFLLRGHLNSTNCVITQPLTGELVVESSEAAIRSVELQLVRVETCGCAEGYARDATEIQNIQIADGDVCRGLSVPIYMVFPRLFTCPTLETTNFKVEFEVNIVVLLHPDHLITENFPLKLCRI

Binder	Kd [1] [nM]	binding result [2]
ASASDVHGNFAFEGIGDEDL [GST-SNX17 CT (GST-tagged tail peptide, last 20 residues of SNX17)]	~110	–
SKIKIAKDDCVFGNIKEEDL [GST-tagged CT acidic tail of SNX31 (last 20 amino acids)]	–	binds
SVYLVNFRCCRSHDLCNEDL [GST-tagged CT acidic tail of PATE1 (last 20 amino acids)]	–	binds
